According to article PMC2665239 (Nucleic Acids Research, 2009):
Like-named read-outs stand apart in the source and are kept apart here. Each block holds one binder with its values, some of them ahead of it.

How the values were obtained:
[1] = target: T1, His-tagged ttPOLXc domain (N-terminal domain of ttPolX, residues 1-379) (Thermus thermophilus HB8, UniProt Q5SJ64 1-379); test: SEC
T1 sequence (looked up): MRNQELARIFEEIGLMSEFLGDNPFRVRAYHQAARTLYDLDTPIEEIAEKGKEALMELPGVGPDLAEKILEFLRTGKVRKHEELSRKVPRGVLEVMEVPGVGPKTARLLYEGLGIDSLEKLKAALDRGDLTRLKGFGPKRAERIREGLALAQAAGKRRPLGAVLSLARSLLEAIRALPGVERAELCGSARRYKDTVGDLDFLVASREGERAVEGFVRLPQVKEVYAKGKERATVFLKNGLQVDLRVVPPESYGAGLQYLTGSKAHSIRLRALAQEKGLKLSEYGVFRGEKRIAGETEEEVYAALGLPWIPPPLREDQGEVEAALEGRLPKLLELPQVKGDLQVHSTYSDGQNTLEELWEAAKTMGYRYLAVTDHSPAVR

ttPOLXc domain [2] = target: T2, ttPOLXc domain (Thermus thermophilus HB8, UniProt Q5SJ64 1-379); test: EMSA
T2 sequence: T1 sequence (looked up)

ttPolX [3] = target: T3, ttPolX (Thermus thermophilus HB8, UniProt Q5SJ64 1-575); test: EMSA
T3 sequence: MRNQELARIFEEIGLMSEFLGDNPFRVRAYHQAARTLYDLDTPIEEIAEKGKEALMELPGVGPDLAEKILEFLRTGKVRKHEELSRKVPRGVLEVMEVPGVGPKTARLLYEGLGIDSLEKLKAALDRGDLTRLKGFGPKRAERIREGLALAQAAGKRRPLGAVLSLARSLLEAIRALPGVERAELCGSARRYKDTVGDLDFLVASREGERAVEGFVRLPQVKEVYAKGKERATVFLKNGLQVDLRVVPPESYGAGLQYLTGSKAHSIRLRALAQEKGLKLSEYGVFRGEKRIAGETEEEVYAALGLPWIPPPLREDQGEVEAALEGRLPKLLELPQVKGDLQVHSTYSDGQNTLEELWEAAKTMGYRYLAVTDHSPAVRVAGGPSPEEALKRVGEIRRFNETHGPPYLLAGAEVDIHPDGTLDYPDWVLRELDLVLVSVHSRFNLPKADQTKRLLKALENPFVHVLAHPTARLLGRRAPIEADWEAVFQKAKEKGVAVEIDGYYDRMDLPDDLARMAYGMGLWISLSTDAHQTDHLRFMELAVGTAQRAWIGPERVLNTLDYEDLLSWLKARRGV

ttPHP domain = target: T4, ttPHP domain (Thermus thermophilus HB8, UniProt Q5SJ64 339-575); test: EMSA
T4 sequence: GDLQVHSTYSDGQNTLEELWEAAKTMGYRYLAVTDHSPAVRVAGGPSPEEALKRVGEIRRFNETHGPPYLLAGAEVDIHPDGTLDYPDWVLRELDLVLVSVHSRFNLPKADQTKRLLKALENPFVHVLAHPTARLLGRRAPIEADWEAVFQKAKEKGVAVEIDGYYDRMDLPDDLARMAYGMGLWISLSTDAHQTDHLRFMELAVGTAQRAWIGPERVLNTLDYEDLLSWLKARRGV

ttPOLXc domain [4] = target: T2, ttPOLXc domain; test: EMSA; remark: listed apart in the source
ttPolX [5] = target: T3, ttPolX; test: EMSA; remark: listed apart in the source
ttPOLXc domain [6] = target: T2, ttPOLXc domain; test: EMSA; remark: listed apart in the source
ttPolX [7] = target: T3, ttPolX; test: EMSA; remark: listed apart in the source
ttPOLXc domain [8] = target: T2, ttPOLXc domain; test: EMSA; remark: listed apart in the source
ttPolX [9] = target: T3, ttPolX; test: EMSA; remark: listed apart in the source

- stoichiometry N [1]: 1 ttPOLXc:ttPHP molar ratio
B1: His-tagged ttPHP domain (C-terminal domain of ttPolX, residues 339-575) (domain or fragment, Thermus thermophilus HB8, UniProt Q5SJ64 339-575, looked up)
chain: T4 sequence

B2: 40T ssDNA (ssDNA)
DNA: CACTGGCGGTCGTTCTATCGGGTGTTGCTTTAGTTGTCAT
- Kd (ttPOLXc domain [2]): 5.5 ± 1.7 µM
- Kd (ttPolX [3]): 1.2 ± 0.7 µM
- binding result (ttPHP domain): no binding

B3: 40T/40C dsDNA (dsDNA)
DNA 1: B2 DNA
DNA 2: ATGACAACTAAAGCAACACCCGATAGAACGACCGCCAGTG
- binding result (ttPHP domain): no binding
- Kd (ttPOLXc domain [4]): 9.3 ± 3.8 µM
- Kd (ttPolX [5]): 1.2 ± 0.7 µM

B4: 21F/40T/P18G 5'-phosphorylated 1-nt gapped DNA (dsDNA)
DNA 1: B2 DNA
DNA 2: ATGACAACTAAAGCAACACCC
DNA 3: ATAGAACGACCGCCAGTG
modifications: 5'-phosphate on 18G (P18G)
- Kd (ttPOLXc domain [6]): 4.8 ± 2.5 µM
- binding result (ttPHP domain): no binding
- Kd (ttPolX [7]): 0.3 ± 0.18 µM

B5: 21F/40T/18G 1-nt gapped DNA (dsDNA)
DNA 1: B2 DNA
DNA 2: ATGACAACTAAAGCAACACCC
DNA 3: ATAGAACGACCGCCAGTG
- Kd (ttPOLXc domain [8]): 6.5 ± 2.5 µM
- Kd (ttPolX [9]): 0.39 ± 0.15 µM
- binding result (ttPHP domain): no binding
